B1: library; numbered along this chain (parent)
chain: MAAAGGARLLRAASAVLGGPAGRWLHHAGSRAGSSGLLRNRGPGGSAEASRSLSVSARARSSSEDKITVHFINRDGETLTTKGKVGDSLLDVVVENNLDIDGFGACEGTLACSTCHLIFEDHIYEKLDAITDEENDMLDLAYGLTDRSRLGCQICLTKSMDNMTVRVPETVADARQSIDVGKTS

Variants of: B1
Test: scaled log2 fold change in cell abundance, elesclomol vs control (0 = silent mean, 1 = nonsense mean) (scaled log2 ratio); higher = higher viability under elesclomol (loss of FDX1 cuproptosis function)
Details: glucose 10 mM
[1] = with ABC1 FDX1 KO, elesclomol 5 nM, 14 days
[2] = with HEK293T FDX1 KO, elesclomol 40 nM, 11 days
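Further: variant abundance is its share of total variant reads in each endpoint sample, from next-generation sequencing of the integrated ORF PCR-amplified out of genomic DNA.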

Variant | scaled log2 fold change [1] | scaled log2 fold change [2]
MAAAGGARLLRAASAVLGGPAGRWLHHAGSRAGSSGLLRNRGPGGSAEASRSLSVSARARSSSEDKITVHFINRDGETLTTKGKVGDSLLDVVVENNLAIDGFGACEGTLACSTCHLIFEDHIYEKLDAITDEENDMLDLAYGLTDRSRLGCQICLTKSMDNMTVRVPETVADARQSIDVGKTS [D99A] | 0.0591 | -1.37
MAAAGGARLLRAASAVLGGPAGRWLHHAGSRAGSSGLLRNRGPGGSAEASRSLSVSARARSSSEDKITVHFINRDGETLTTKGKVGDSLLDVVVENNLCIDGFGACEGTLACSTCHLIFEDHIYEKLDAITDEENDMLDLAYGLTDRSRLGCQICLTKSMDNMTVRVPETVADARQSIDVGKTS [D99C] | 0.108 | 0.138
MAAAGGARLLRAASAVLGGPAGRWLHHAGSRAGSSGLLRNRGPGGSAEASRSLSVSARARSSSEDKITVHFINRDGETLTTKGKVGDSLLDVVVENNLFIDGFGACEGTLACSTCHLIFEDHIYEKLDAITDEENDMLDLAYGLTDRSRLGCQICLTKSMDNMTVRVPETVADARQSIDVGKTS [D99F] | -0.0227 | 0.0629
MAAAGGARLLRAASAVLGGPAGRWLHHAGSRAGSSGLLRNRGPGGSAEASRSLSVSARARSSSEDKITVHFINRDGETLTTKGKVGDSLLDVVVENNLHIDGFGACEGTLACSTCHLIFEDHIYEKLDAITDEENDMLDLAYGLTDRSRLGCQICLTKSMDNMTVRVPETVADARQSIDVGKTS [D99H] | -0.403 | -0.137
MAAAGGARLLRAASAVLGGPAGRWLHHAGSRAGSSGLLRNRGPGGSAEASRSLSVSARARSSSEDKITVHFINRDGETLTTKGKVGDSLLDVVVENNLEIDGFGACEGTLACSTCHLIFEDHIYEKLDAITDEENDMLDLAYGLTDRSRLGCQICLTKSMDNMTVRVPETVADARQSIDVGKTS [D99E] | 0.144 | 0.199
MAAAGGARLLRAASAVLGGPAGRWLHHAGSRAGSSGLLRNRGPGGSAEASRSLSVSARARSSSEDKITVHFINRDGETLTTKGKVGDSLLDVVVENNLGIDGFGACEGTLACSTCHLIFEDHIYEKLDAITDEENDMLDLAYGLTDRSRLGCQICLTKSMDNMTVRVPETVADARQSIDVGKTS [D99G] | -1 | -0.777
MAAAGGARLLRAASAVLGGPAGRWLHHAGSRAGSSGLLRNRGPGGSAEASRSLSVSARARSSSEDKITVHFINRDGETLTTKGKVGDSLLDVVVENNLKIDGFGACEGTLACSTCHLIFEDHIYEKLDAITDEENDMLDLAYGLTDRSRLGCQICLTKSMDNMTVRVPETVADARQSIDVGKTS [D99K] | 0.114 | -0.24
MAAAGGARLLRAASAVLGGPAGRWLHHAGSRAGSSGLLRNRGPGGSAEASRSLSVSARARSSSEDKITVHFINRDGETLTTKGKVGDSLLDVVVENNLIIDGFGACEGTLACSTCHLIFEDHIYEKLDAITDEENDMLDLAYGLTDRSRLGCQICLTKSMDNMTVRVPETVADARQSIDVGKTS [D99I] | 0.14 | -0.0831
MAAAGGARLLRAASAVLGGPAGRWLHHAGSRAGSSGLLRNRGPGGSAEASRSLSVSARARSSSEDKITVHFINRDGETLTTKGKVGDSLLDVVVENNSDIDGFGACEGTLACSTCHLIFEDHIYEKLDAITDEENDMLDLAYGLTDRSRLGCQICLTKSMDNMTVRVPETVADARQSIDVGKTS [L98S] | 0.421 | -0.0745
MAAAGGARLLRAASAVLGGPAGRWLHHAGSRAGSSGLLRNRGPGGSAEASRSLSVSARARSSSEDKITVHFINRDGETLTTKGKVGDSLLDVVVENNVDIDGFGACEGTLACSTCHLIFEDHIYEKLDAITDEENDMLDLAYGLTDRSRLGCQICLTKSMDNMTVRVPETVADARQSIDVGKTS [L98V] | -0.0512 | -0.662
MAAAGGARLLRAASAVLGGPAGRWLHHAGSRAGSSGLLRNRGPGGSAEASRSLSVSARARSSSEDKITVHFINRDGETLTTKGKVGDSLLDVVVENNRDIDGFGACEGTLACSTCHLIFEDHIYEKLDAITDEENDMLDLAYGLTDRSRLGCQICLTKSMDNMTVRVPETVADARQSIDVGKTS [L98R] | 0.136 | 0.607
MAAAGGARLLRAASAVLGGPAGRWLHHAGSRAGSSGLLRNRGPGGSAEASRSLSVSARARSSSEDKITVHFINRDGETLTTKGKVGDSLLDVVVENNYDIDGFGACEGTLACSTCHLIFEDHIYEKLDAITDEENDMLDLAYGLTDRSRLGCQICLTKSMDNMTVRVPETVADARQSIDVGKTS [L98Y] | 0.000145 | -0.257
MAAAGGARLLRAASAVLGGPAGRWLHHAGSRAGSSGLLRNRGPGGSAEASRSLSVSARARSSSEDKITVHFINRDGETLTTKGKVGDSLLDVVVENNPDIDGFGACEGTLACSTCHLIFEDHIYEKLDAITDEENDMLDLAYGLTDRSRLGCQICLTKSMDNMTVRVPETVADARQSIDVGKTS [L98P] | -0.901 | 0.205
MAAAGGARLLRAASAVLGGPAGRWLHHAGSRAGSSGLLRNRGPGGSAEASRSLSVSARARSSSEDKITVHFINRDGETLTTKGKVGDSLLDVVVENNQDIDGFGACEGTLACSTCHLIFEDHIYEKLDAITDEENDMLDLAYGLTDRSRLGCQICLTKSMDNMTVRVPETVADARQSIDVGKTS [L98Q] | 0.167 | -0.327
MAAAGGARLLRAASAVLGGPAGRWLHHAGSRAGSSGLLRNRGPGGSAEASRSLSVSARARSSSEDKITVHFINRDGETLTTKGKVGDSLLDVVVENNWDIDGFGACEGTLACSTCHLIFEDHIYEKLDAITDEENDMLDLAYGLTDRSRLGCQICLTKSMDNMTVRVPETVADARQSIDVGKTS [L98W] | 0.476 | 0.189
MAAAGGARLLRAASAVLGGPAGRWLHHAGSRAGSSGLLRNRGPGGSAEASRSLSVSARARSSSEDKITVHFINRDGETLTTKGKVGDSLLDVVVENNTDIDGFGACEGTLACSTCHLIFEDHIYEKLDAITDEENDMLDLAYGLTDRSRLGCQICLTKSMDNMTVRVPETVADARQSIDVGKTS [L98T] | -0.168 | 0.331

Source: the supplement of paper PMC12855868
